Assay results from publication PMC5504291, “Bacterial lipid droplets bind to DNA via an intermediary protein that enhances survival under stress”.

Assays:
MLDSR (GST-MLDSR) [1] = molecular target: T1, MLDSR (GST-MLDSR) (Rhodococcus jostii RHA1, UniProt A0A1H4Y2R3 2-168); assay: SPR; EMSA: 20 mM Tris-HCl pH 7.5, 150 mM NaCl, 5 mM MgCl2, 1 mM EDTA, 1 mM DTT, 4% glycerol, 24 C or room temperature, 30-40 min; SPR: 20 mM Tris-HCl pH 7.5, 150 mM; settings: protein: recombinant; tags: N-terminal GST; label: 5'-biotin on strand 1; blunt
T1 sequence: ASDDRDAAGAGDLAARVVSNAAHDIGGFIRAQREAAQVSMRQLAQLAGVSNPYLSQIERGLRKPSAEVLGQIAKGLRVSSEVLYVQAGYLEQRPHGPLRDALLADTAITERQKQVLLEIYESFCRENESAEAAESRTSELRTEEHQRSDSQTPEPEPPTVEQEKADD

MLDSR (GST-MLDSR) [2] = molecular target: T1, MLDSR (GST-MLDSR); assay: EMSA; EMSA: 20 mM Tris-HCl pH 7.5, 150 mM NaCl, 5 mM MgCl2, 1 mM EDTA, 1 mM DTT, 4% glycerol, 24 C or room temperature, 30-40 min; SPR: 20 mM Tris-HCl pH 7.5, 150 mM; settings: protein: recombinant; tags: N-terminal GST; blunt
MLDSR (GST-MLDSR) [3] = molecular target: T1, MLDSR (GST-MLDSR); assay: SPR; 1:1 model though DNA holds two sites; EMSA: 20 mM Tris-HCl pH 7.5, 150 mM NaCl, 5 mM MgCl2, 1 mM EDTA, 1 mM DTT, 4% glycerol, 24 C or room temperature, 30-40 min; SPR: 20 mM Tris-HCl pH 7.5, 150 mM; settings: protein: recombinant; tags: N-terminal GST; label: 5'-biotin on strand 1; blunt
MLDSR (GST-MLDSR) [4] = molecular target: T1, MLDSR (GST-MLDSR); assay: EMSA; rough estimate by authors from Fig. 5b; EMSA: 20 mM Tris-HCl pH 7.5, 150 mM NaCl, 5 mM MgCl2, 1 mM EDTA, 1 mM DTT, 4% glycerol, 24 C or room temperature, 30-40 min; SPR: 20 mM Tris-HCl pH 7.5, 150 mM; settings: protein: recombinant; tags: N-terminal GST; blunt

B1: biotin-motif 2 (23 bp) (dsDNA)
DNA 1: TCCGCTAGCTGGGTGCTAACAGA
DNA 2: TCTGTTAGCACCCAGCTAGCGGA
MLDSR (GST-MLDSR) [1]
  Kd: 5140 nM

B2: 103 bp (dsDNA)
DNA 1: CAATCGCCTCGACGGAGGGTCCGCTAGCTGGGTGCTAACAGAGTGCTTGCAATTGCTAGCACCCTGCTTTAGCCTTGGTTCTGCCCAGCAACACGGAGGACTG
DNA 2: CAGTCCTCCGTGTTGCTGGGCAGAACCAAGGCTAAAGCAGGGTGCTAGCAATTGCAAGCACTCTGTTAGCACCCAGCTAGCGGACCCTCCGTCGAGGCGATTG
MLDSR (GST-MLDSR) [2]
  binding result: binds

B3: biotin-43 bp (motif 1+2) (dsDNA)
DNA 1: TCCGCTAGCTGGGTGCTAACAGAGTGCTTGCAATTGCTAGCAC
DNA 2: GTGCTAGCAATTGCAAGCACTCTGTTAGCACCCAGCTAGCGGA
MLDSR (GST-MLDSR) [3]
  Kd: 62 nM

B4: 43 bp (motif 1+2) (dsDNA)
DNA 1: B3 DNA 1
DNA 2: B3 DNA 2
MLDSR (GST-MLDSR) [4]
  Kd: ~442 nM

B5: biotin-motif 1 (20 bp) (dsDNA)
DNA 1: GTGCTTGCAATTGCTAGCAC
DNA 2: GTGCTAGCAATTGCAAGCAC
MLDSR (GST-MLDSR) [1]
  Kd: 175 nM
